Results published in the supplement of paper PMC9233669.
Fewer inactive variants are shown than the library holds.

How the values were obtained:
biotinyl-Phe-oxazolone = assay: self-aminoacylation, catalytic enhancement (BFO) (fold over background); higher = more active; k-Seq, kA / k0A0; sequences stand for … in GGGAAUGGAUCCACAUCUACGAAUUC…UUCACUGCAGACUUGACGAAGCUG
How it was run: (§1)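 Each biotinyl-aminoacyl-oxazolone, at 2–1250 μM, was incubated with mutagenized RNA pools (0.43 μM) carrying a 21-nt variable region. The 50 μL reactions contained HEPES/NaCl/KCl/MgCl2/CaCl2 buffer with 5% acetonitrile at pH 6.9–7.0 and ran for 90 minutes at room temperature. After streptavidin capture, RNA was measured by qPCR in triplicate and by Illumina sequencing, and catalytic enhancement was calculated as median kA over the uncatalyzed rate from a pseudo-first-order fit of per-sequence fraction reacted.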

biotinyl-Ile-oxazolone = assay: self-aminoacylation, catalytic enhancement (BIO) (fold over background); higher = more active; k-Seq, kA / k0A0; sequences stand for … in GGGAAUGGAUCCACAUCUACGAAUUC…UUCACUGCAGACUUGACGAAGCUG
How it was run: as §1

biotinyl-Met-oxazolone = assay: self-aminoacylation, catalytic enhancement (BMO) (fold over background); higher = more active; k-Seq, kA / k0A0; sequences stand for … in GGGAAUGGAUCCACAUCUACGAAUUC…UUCACUGCAGACUUGACGAAGCUG
How it was run: as §1

biotinyl-Val-oxazolone = assay: self-aminoacylation, catalytic enhancement (BVO) (fold over background); higher = more active; k-Seq, kA / k0A0; sequences stand for … in GGGAAUGGAUCCACAUCUACGAAUUC…UUCACUGCAGACUUGACGAAGCUG
How it was run: as §1

biotinyl-Leu-oxazolone = assay: self-aminoacylation, catalytic enhancement (BLO) (fold over background); higher = more active; k-Seq, kA / k0A0; sequences stand for … in GGGAAUGGAUCCACAUCUACGAAUUC…UUCACUGCAGACUUGACGAAGCUG
How it was run: as §1

biotinyl-Trp-oxazolone = assay: self-aminoacylation, catalytic enhancement (BWO) (fold over background); higher = more active; k-Seq, kA / k0A0; sequences stand for … in GGGAAUGGAUCCACAUCUACGAAUUC…UUCACUGCAGACUUGACGAAGCUG
How it was run: as §1

Row | Sequence | self-aminoacylation (biotinyl-Phe-oxazolone) | self-aminoacylation (biotinyl-Ile-oxazolone) | self-aminoacylation (biotinyl-Met-oxazolone) | self-aminoacylation (biotinyl-Val-oxazolone) | self-aminoacylation (biotinyl-Leu-oxazolone) | self-aminoacylation (biotinyl-Trp-oxazolone)
1 | CCACACUGCAAGCAAUCGAUC [Fam1B.1 aminoacylation ribozyme variant] | 1.39 | 0.9 | 0.56 | 1.07 | 0.739 | 0.727
2 | CCACACUGCAAGCAAUCGGUU [Fam1B.1 aminoacylation ribozyme variant] | 5.76 | 1.77 | 2.17 | 1.73 | 1.63 | 1.76
3 | CCACACUGCAAGCACUCGGUC [Fam1B.1 aminoacylation ribozyme variant] | 2.57 | 1.63 | 1.54 | 1.66 | 1.39 | 1.47
4 | CCACACUGCAAGCGAUCGGUC [Fam1B.1 aminoacylation ribozyme variant] | 1.13 | 1.27 | 1.19 | 1.57 | 1.15 | 1.43
5 | CCACACUUAAACCAAUCGGUC [Fam1B.1 aminoacylation ribozyme variant] | 1.19 | 0.938 | 0.615 | 0.756 | 0.572 | 0.722
6 | CCACACUUAAAGCAACCGGUC [Fam1B.1 aminoacylation ribozyme variant] | 0.756 | 1.08 | 1.2 | 1.16 | 0.876 | 0.943
7 | CCACACUUAAAGCAAUCGGUG [Fam1B.1 aminoacylation ribozyme variant] | 26 | 2.75 | 3.87 | 2.42 | 4.31 | 4.42
8 | CCACACUUAAAGCACUCGGUC [Fam1B.1 aminoacylation ribozyme variant] | 0.788 | 1.16 | 0.856 | 1.11 | 0.924 | 0.732
9 | CCACACUUAAAGGAAUCGGUC [Fam1B.1 aminoacylation ribozyme variant] | 0.88 | 1.12 | 0.953 | 1.01 | 0.906 | 0.763
10 | CCACACUUCAAACAAUCAGUC [Fam1B.1 aminoacylation ribozyme variant] | 42.2 | 0.947 | 0.771 | 1.06 | 1.16 | 12.4
11 | CCACACUUCAAACAAUCCGUC [Fam1B.1 aminoacylation ribozyme variant] | 1.35 | 0.83 | 0.559 | 0.993 | 0.682 | 1.2
12 | CCACACUUCAAACAAUCGUUC [Fam1B.1 aminoacylation ribozyme variant] | 1.55 | 0.759 | 0.697 | 0.822 | 0.623 | 0.778
13 | CCACACUUCAAAGAAUCGGUC [Fam1B.1 aminoacylation ribozyme variant] | 12.1 | 0.988 | 0.888 | 0.955 | 1.17 | 9.57
14 | CCACACUUCAACCAAGCGGUC [Fam1B.1 aminoacylation ribozyme variant] | 0.838 | 0.95 | 0.914 | 1.08 | 0.761 | 0.613
15 | CCACACUUCAACCAAUCGGCC [Fam1B.1 aminoacylation ribozyme variant] | 4.99 | 2.12 | 1.55 | 2 | 1.72 | 5.45
16 | CCACACUUCAACCAAUCGUUC [Fam1B.1 aminoacylation ribozyme variant] | 1.28 | 0.674 | 0.634 | 0.636 | 0.562 | 0.778
17 | CCACACUUCAACCUAUCGGUC [Fam1B.1 aminoacylation ribozyme variant] | 1.18 | 1.02 | 0.87 | 1.34 | 0.995 | 0.993
18 | CCACACUUCAAGAAACCGGUC [Fam1B.1 aminoacylation ribozyme variant] | 0.875 | 0.998 | 0.798 | 0.824 | 1.17 | 0.931
19 | CCACACUUCAAGAAAGCGGUC [Fam1B.1 aminoacylation ribozyme variant] | 0.498 | 0.839 | 0.66 | 0.716 | 0.784 | 0.407
20 | CCACACUUCAAGAAAUCGGGC [Fam1B.1 aminoacylation ribozyme variant] | 1.14 | 2.14 | 1.82 | 1.69 | 1.64 | 2.16
21 | CCACACUUCAAGCAAACGGUC [Fam1B.1 aminoacylation ribozyme variant] | 1.02 | 0.624 | 0.511 | 0.755 | 0.535 | 0.599
22 | CCACACUUCAAGCAAACUGUC [Fam1B.1 aminoacylation ribozyme variant] | 0.713 | 0.424 | 0.371 | 0.504 | 0.44 | 0.5
23 | CCACACUUCAAGCAAGCAGUC [Fam1B.1 aminoacylation ribozyme variant] | 0.916 | 0.721 | 0.645 | 0.857 | 0.861 | 0.475
24 | CCACACUUCAAGCAAGCGGUA [Fam1B.1 aminoacylation ribozyme variant] | 0.741 | 1.39 | 1.02 | 1.2 | 1.13 | 0.921
25 | CCACACUUCAAGCAAGCGUUC [Fam1B.1 aminoacylation ribozyme variant] | 0.905 | 0.689 | 0.454 | 0.728 | 0.516 | 0.492
26 | CCACACUUCAAGCAAUAGGAC [Fam1B.1 aminoacylation ribozyme variant] | 0.856 | 0.621 | 0.456 | 0.537 | 0.479 | 0.626

Row | Sequence | self-aminoacylation (biotinyl-Phe-oxazolone) | self-aminoacylation (biotinyl-Ile-oxazolone) | self-aminoacylation (biotinyl-Met-oxazolone) | self-aminoacylation (biotinyl-Val-oxazolone) | self-aminoacylation (biotinyl-Leu-oxazolone) | self-aminoacylation (biotinyl-Trp-oxazolone)
27 | CCACACUUCAAGCAAUAGGUG [Fam1B.1 aminoacylation ribozyme variant] | 4.08 | 1.85 | 2.17 | 1.65 | 2.81 | 2.55
28 | CCACACUUCAAGCAAUCCAUC [Fam1B.1 aminoacylation ribozyme variant] | 0.752 | 0.553 | 0.433 | 0.774 | 0.446 | 0.529
29 | CCACACUUCAAGCAAUCCGCC [Fam1B.1 aminoacylation ribozyme variant] | 0.939 | 0.873 | 1.16 | 1.64 | 1.02 | 0.899
30 | CCACACUUCAAGCAAUCGCCC [Fam1B.1 aminoacylation ribozyme variant] | 0.498 | 0.996 | 1.33 | 2.32 | 2 | 1.58
31 | CCACACUUCAAGCAAUCGGAA [Fam1B.1 aminoacylation ribozyme variant] | 1.81 | 1.45 | 1.42 | 1.51 | 2.04 | 1.18
32 | CCACACUUCAAGCAAUCGGUC [Fam1B.1 aminoacylation ribozyme variant] | 59.3 | 1.01 | 0.964 | 1.25 | 1.44 | 23.9
33 | CCACACUUCAAGCAAUCGGUU [Fam1B.1 aminoacylation ribozyme variant] | 9.59 | 1.35 | 1.36 | 1.59 | 1.38 | 7.61
34 | CCACACUUCAAGCAAUCGUCC [Fam1B.1 aminoacylation ribozyme variant] | 1.57 | 0.54 | 0.412 | 0.652 | 0.518 | 1.06
35 | CCACACUUCAAGCAAUCUGAC [Fam1B.1 aminoacylation ribozyme variant] | 0.63 | 0.493 | 0.41 | 0.549 | 0.325 | 0.429
36 | CCACACUUCAAGCAAUUGGCC [Fam1B.1 aminoacylation ribozyme variant] | 2.34 | 2.77 | 2.58 | 4.13 | 3.18 | 3.51
37 | CCACACUUCAAGCACUCGGCC [Fam1B.1 aminoacylation ribozyme variant] | 15.9 | 3.06 | 2.89 | 4.04 | 3.19 | 5.51
38 | CCACACUUCAAGCACUCGGUG [Fam1B.1 aminoacylation ribozyme variant] | 22.4 | 2.92 | 3.52 | 3.16 | 4.22 | 3.63
39 | CCACACUUCAAGCAGCCGGUC [Fam1B.1 aminoacylation ribozyme variant] | 0.916 | 1.97 | 1.32 | 1.56 | 1.82 | 1.68
40 | CCACACUUCAAGCAGGCGGUC [Fam1B.1 aminoacylation ribozyme variant] | 0.771 | 1.86 | 1.24 | 1.54 | 1.07 | 1.77
41 | CCACACUUCAAGCAUUCAGUC [Fam1B.1 aminoacylation ribozyme variant] | 1.03 | 0.878 | 0.505 | 0.758 | 0.576 | 0.562
42 | CCACACUUCAAGCCAUCGGCC [Fam1B.1 aminoacylation ribozyme variant] | 5.27 | 2.98 | 3.33 | 5 | 2.85 | 4.97
43 | CCACACUUCAAGCCAUCGUUC [Fam1B.1 aminoacylation ribozyme variant] | 0.848 | 1.08 | 1.03 | 1.35 | 1.24 | 0.897
44 | CCACACUUCAAGCGACCGGUC [Fam1B.1 aminoacylation ribozyme variant] | 0.483 | 1.22 | 1.11 | 1.52 | 1.33 | 1.63
45 | CCACACUUCAAGCGAGCGGUC [Fam1B.1 aminoacylation ribozyme variant] | 0.929 | 0.983 | 0.603 | 1.11 | 0.93 | 0.744
46 | CCACACUUCAAGCGAUCGCUC [Fam1B.1 aminoacylation ribozyme variant] | 4.68 | 2.62 | 1.85 | 2.03 | 2.28 | 2.83
47 | CCACACUUCAAGCGAUCGGGC [Fam1B.1 aminoacylation ribozyme variant] | 1.07 | 2.4 | 2.65 | 2.89 | 1.64 | 3.13
48 | CCACACUUCAAGCGAUCGGUA [Fam1B.1 aminoacylation ribozyme variant] | 1.73 | 1.22 | 1.48 | 2.2 | 1.58 | 0.843
49 | CCACACUUCAAGCGAUCGGUU [Fam1B.1 aminoacylation ribozyme variant] | 3.6 | 1.77 | 1.48 | 2.08 | 1.53 | 1.77
50 | CCACACUUCAAGCUAUCGGCC [Fam1B.1 aminoacylation ribozyme variant] | 0.862 | 1.62 | 1.7 | 1.51 | 1.82 | 1.81
51 | CCACACUUCAAGCUAUCGGGC [Fam1B.1 aminoacylation ribozyme variant] | 1.57 | 1.67 | 1.46 | 1.76 | 1.45 | 2.2
